Article PMC9197780

Columns and labels:
Test in all cases: SPR
[1] = target: ADI-56046 (human)
[2] = target: P2B-2F6 (human)
[3] = target: C105 (human)
[4] = target: P17 (human)
[5] = target: B38 (human)
[6] = target: CB6 (human)

SARS-CoV-2 Omicron BA.1 RBD protein with His-tag, spike residues 319-541 (from UniProt P0DTC2 319-541) (domain or fragment)
Kd [1]: 2300 nM

SARS-CoV-2 Omicron BA.1.1 RBD protein with His-tag, spike residues 319-541 (from UniProt P0DTC2 319-541) (domain or fragment)
Kd [1]: 1500 nM

SARS-CoV-2 Omicron BA.2 RBD protein with His-tag, spike residues 319-541 (from UniProt P0DTC2 319-541) (domain or fragment)
Kd [2]: 5100 nM

SARS-CoV-2 Omicron BA.3 RBD protein with His-tag, spike residues 319-541 (from UniProt P0DTC2 319-541) (domain or fragment)
Kd [3]: > 500 nM
Kd [4]: 3500 nM
Kd [5]: > 500 nM
Kd [6]: > 500 nM
Kd [1]: 18000 nM
